Where two headings read alike, the source gives them in different places. Ends that are not written are not given here.
Assays:
bEnd.3 cell monolayers = test system: bEnd.3 cell monolayers
Method: Figure 4 PPCs translocation across a bEnd.3 in vitro BBB model. (A) bEnd.3 in vitro BBB model transwell system. The insert, or apex, corresponds to the blood side, while the base (bottom chamber) corresponds to the brain side. (B) After formation of a monolayer, 10 μM of each conjugate was added to the apical side of the tissue culture inserts. After incubation for 24 h, samples from the basolateral side were collected, and the percentage of translocation of each conjugate (black) was calculated. FD4 permeability (gray) was measured to determine monolayer integrity post-PPCs translocation.
After 24 h incubation with conjugates, an in vitro integrity assay was performed.[19] Briefly, cells were washed twice with PBS and once with DMEM medium without phenol red. Then, previously diluted 4 kDa fluorescein isothiocyanate-dextran (FD4) (Sigma-Aldrich, Spain) in DMEM without phenol red to an absorbance of 0.1 was added to the apical side and incubated for 2 h. Samples were collected from the apical and basolateral side, and fluorescence intensity was measured with λext = 493 nm and λem = 520 nm, using a Varioskan Lux plate reader. The integrity of the barrier was determined as follows: [drawing 2] 2 where Fi is the recovered fluorescence intensity, Fcells is the recovered fluorescence intensity from cells without FD4 incubation, FFD4 is the fluorescence intensity of total FD4 initially added to the transwell apical side, and FMedium is the fluorescence intensity of DMEM medium without phenol red.

HIV-1NL4-3 = test: In vitro inhibition of HIV-1NL4-3 infection of TZM-bl cells (luciferase reporter); format: cell-based; conditions: for IC50: TZM-bl cells; for HIV inhibition (in words): in vitro, absence of photoactivation
Method: Viral supernatants harvested from pNL4-3-transfected HEK293T cells were titered through the Reed-Muench method[56] based on HIV-1NL4–3 infectivity against TZM-bl cell cultures. TZM-bl cells were seeded at 2 × 10^4 cells/well in tissue culture-treated 96-well microplates from Corning (Corning, NY, USA), and incubated for 24 h. Cells were then incubated with 2-fold serial dilutions of viral supernatants for 3 h, after which the supernatant was replaced with fresh complete medium. After 45 h, TZM-bl cell infection was quantified through luciferase reporter-gene expression levels, under the control of an HIV-1 TAT-dependent LTR promoter[57] using the Luc-Screen luciferase chemiluminescence detection system. Luminescence was measured in an Infinite M200 microplate reader from Tecan (Männedorf, Switzerland). […] Titration was performed with at least four replicates to allow accurate estimation of TCID50 in viral supernatants.
The inhibitory activity of conjugates on HIV-1NL4–3 entry into TZM-bl cells was evaluated as previously described.[58] TZM-bl cells were seeded at 2 × 10^4 cells/well in tissue culture-treated 96-well microplates and incubated for 24 h. HIV-1NL4–3 viral supernatants (100 or 10 TCID50/well) were then incubated for 1 h with 2-fold serial dilutions of either nonconjugated peptide and porphyrins or conjugates, after which the infection mixture was added to TZM-bl cells. Untreated cells (in the absence of peptide–porphyrin conjugate) were used as control. Virions were incubated with cells for 3 h, after which cells were washed to remove unbound virions and new medium was added. After 45 h, infection was quantified by the Luc-Screen chemiluminescence assay. Measurements were performed in an Infinite M200 microplate reader. […] At least three independent experiments were performed for each assay.

bEnd.3 cells = test: Cell viability assay (CellTiter-Blue); format: cell-based, murine
Method: bEnd.3 cells were plated in fibronectin precoated 96-well flat-bottom clear black polystyrene plate (Corning, New York, USA) as previously described. Cells were then cultured in complete medium at 37 °C in a 5% CO2 atmosphere, with medium replaced every 2 days. […] Viability was evaluated by the CellTiter-Blue assay (Promega, Wisconsin, USA), based on resazurin reduction into highly fluorescent resorufin by metabolically active cells. By distinguishing metabolic from nonmetabolic cells, cytotoxicity can be indirectly determined. After incubation, cells were washed with PBS, pH 7.4, and 15 μL of CellTiterBlue reagent in 100 μL of complete medium was added to the cells and incubated for 1.5 h at 37 °C in 5% CO2. Fluorescence was measured at 590 nm, with excitation at 560 nm, using an Infinite F200 plate reader (Tecan, Switzerland). Complete medium and medium containing 0.25% Triton X-100 were used as positive and negative controls (100% and 0% viability), respectively. Cell viability (%) was determined using the following equation: [drawing 5] 5 where […] is the fluorescence emission of conjugate-treated cells, Fnontreated is the fluorescence emission of the control nontreated cells, and Fblank is the fluorescent emission of CellTiter reagent in complete medium without cells.

TZM-bl cells = format: cell-based
Method: TZM-bl Cell Viability Studies
The cytotoxic effects of each PPC on TZM-bl cell cultures were assessed to ensure that HIV inhibition was a result of the compounds effect on the virus and not on the host cells used in the assay. A resazurin reduction fluorometric assay was performed. Resazurin, the active compound in alamarBlue®, is a blue dye that can be reduced to a pink fluorescent intermediate, resorufin, as a result of cell metabolic activity.6 TZM-bl cells were seeded at 2x10^4 cells/well in tissue culture-treated 96-well microplates and incubated for 24 h. Cells were then incubated with serial dilutions (2-fold) of single peptide and porphyrins, or PPC, for 3 h, after which the mixture was replaced with fresh complete medium. Untreated cells (in the absence of peptide-porphyrin combinations) were used as a control. After 42 h, media was replaced with alamarBlue® reagent and incubated for an additional 3 h. Resazurin reduction was quantified by resorufin fluorescent emission intensity, measured in an Infinite M200 microplate reader. Fluorescence emission intensity was collected at 590 nm, using a fixed λ exc of 560 nm. Excitation and emission slits were 9 and 20 nm, respectively. Cell viability was calculated through the following formalism: […]
where I EI corresponds to the resorufin fluorescence emission intensity in the presence of EIs or combination, I control to the fluorescence emission intensity in the absence of EIs and I background to the background fluorescence emission from the non-reduced […]
P5, P4-MP, MP-L-P3 and P4-L-M - are presented here.
TZM-bl cell viability on the concentration range tested.
(1 picture or pasted object on this page, not shown here)
Figure S7. PPCs cytotoxic effects against TZM-bl cells. A resazurin reduction fluorometric assay, dependent on the cell metabolic activity, was used. Cell viability, normalized to the control in the absence of PPC, was measured against three concentrations of each individual PPC: MP-P3 (black), MP-P5 (white), P4-MP (red), MP-L-P3 (blue) and P4-L-MP (green).

[1] = 10 TCDI50 per well (approximate physiological conditions of HIV brain infection), read-out: IC50 HIV inhibition, 10 TCDI50
[2] = 100 TCDI50 per well, no-light, read-out: IC50 HIV inhibition, 100 TCDI50

Row | Substance | % Base (RFI), FD4 Permeability (monolayer integrity post-translocation) (bEnd.3 cell monolayers) [%] | IC50 (HIV-1NL4-3; [1]) [µM] | IC50 (HIV-1NL4-3; [2]) [µM] | HIV inhibition (in words) (HIV-1NL4-3) | CC50 (bEnd.3 cells) [µM] | TZM-bl cell viability (in words) (TZM-bl cells)
1 | P4-MP: mesoporphyrin IX coupled to the C-terminal Lys side chain of peptide P4 (AGILKRWK-amide) (AGILKRWK(mesoporphyrin IX)-NH2) | 15.3 | 5.77 ± 1.17 | 34 ± 1.25 | inhibit HIV in vitro | > 50 | did not alter significantly
2 | MP-P5: mesoporphyrin IX coupled to the N-terminal amino group of peptide P5 (SGTQEEY-amide) ({mesoporphyrin IX}-SGTQEEY-NH2) | 9.4 | 10 ± 2.9 | 33.1 ± 1.38 | inhibit HIV in vitro | > 50 | did not alter significantly

Source: PMC8485325, “Penetrating the Blood-Brain Barrier with New Peptide–Porphyrin Conjugates Having anti-HIV Activity” (Bioconjugate Chemistry, 2021)
